# B1: TPR t1 (parent)
# chain: GACCAAUCUGCCCUCAGAGCUCGAGAACAUCUUCGGAUGCAGAGGAGGCAGGCUUCGGUGGCGCGAUAGCGCCAACGUCCUCAACCUCCAAUGCAUCCCACCACAUGAUGAUGCCUGAAGAGCCUUGGUUUUUUG
# Variants of: B1
# Experiment: polymerase ribozyme fitness, log enrichment relative to wild type (log ratio); higher = more active; in vitro selection for triplet polymerase activity
# Method in brief: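 Each subunit of a heterodimeric triplet polymerase ribozyme was represented by a PCR-built, transcribed mutant library that underwent triplicate single-round in vitro selection with frozen incubation at −7 °C. Extended constructs were recovered by gel excision, streptavidin-bead capture and RT-PCR, and Illumina sequencing of input and output libraries kept genotypes with ≥10 input reads and ≥1 read per output. Fitness is the logarithm of genotype enrichment relative to wild-type enrichment, from inverse-variance-weighted replicate averages, with a logarithm base of 2.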
row,Variant,polymerase ribozyme fitness (log ratio)
1,C101A U109A A111G G120U C124U,-6.02
2,A91U U96G G120U,-1.75
3,C94A C114A G122A,-3
4,U87G A121C,1.82
5,C94A G135U,-1.66
6,U92A A119G G127C,-2.05
7,A90U G117U,-3.37
8,C94G C123A C124A,1.47
9,G93C C102A U116G,-5.28
10,U87A C114A,-2.58
11,G93A A95C A121U,0.651
12,C97G A121U,-2.07
13,A100U G128A,-2.05
14,C99U A118G,-2.48
15,A90U A105G,-3.78
16,A100U G113A,-1.88
17,C88G U130C,-0.362
18,C88G U130G,-0.5
19,A90C A91C G110A,-4.36
20,U92C C123G,0.159
21,C94G U106A,-1.14
22,C98A G120C,-4.15
23,C99U U132A,-2.96
24,C88G G120A,-1.21

row,Variant,polymerase ribozyme fitness (log ratio)
1,C88G G120C,-0.00486
2,C94A U112A,1.02
3,A95U C114A,-1.43
4,C99U U131C,-2.72
5,C99U U131G,-3.59
6,A91G U125A,-0.619
7,C94U U116C G128U,-3.48
8,A100C C123A,-0.801
9,G93C U112G,-0.938
10,C98U U129G,-2.41
11,A90U U112G,-3.12
12,A90U G93A U112C,-0.194
13,U92G A108U U112A G113A,-6.92
14,U87G A91U U109A U125C,-5.71
15,C101U A103U G113U,-7.03
16,C94A C115U,-2.44
17,G93U G120A U125A,0.0882
18,C88A U133A,0.0129
19,C98A C99A,-6.47
20,U92A A111G,-3.82
21,C88U C123A,1.43
22,C88U C123U,0.953
23,C88G G120A U129A,-1.48
24,C101G C104U,-2.98

row,Variant,polymerase ribozyme fitness (log ratio)
1,C89U G117C,-4.26
2,C89G C104A,-3.34
3,U87A C89U G128A,-2.15
4,C99U G110U A121G,-5.37
5,U96G G117U,-2.13
6,U96G C114U,-2.28
7,C88G C104A U112G,-4.26
8,G93C U106C U112C,0.785
9,G93C G135C,-1.15
10,U87C G120U,-1.06
11,C101G G135C,-1.41
12,C89U G120C,0.737
13,C88U U112G,0.74
14,C94G C102A,-3.54
15,C97A U129A,-4.83
16,U87A U129A,-0.873
17,A90C C94U,-1.34
18,A90C C123U,0.206
19,A95U G113A G127A,-2.73
20,A90C U92C C102A G120C U132A,-4.27
21,U87A U112A,1.76
22,A91C C104U,-1.08
23,U92G C101A,-4.03
24,A91U C115U,-2.04

row,Variant,polymerase ribozyme fitness (log ratio)
1,A91U C115G,-2.97
2,U92G C97U G110U,-5.82
3,C94A C98A,-6.59
4,C99G G110C,-7.23
5,C94U G117C U130A,-6.35
6,C94U C104U,-0.577
7,C88A C89G C123U U134G,0.911
8,A91C C123U,-0.37
9,A95G U112C C124U,1.01
10,C88U G110U U125G,-2.46
11,C88U U125G,-1.39
12,C97U C115U,-2.49
13,U87A C88A U96C,-1.02
14,A91U U112A G117C C123U U134A,-2.54
15,U96A G113A C115A G120C,-3.71
16,C89G G120C,-0.58
17,A100C G120A G122A,-1.28
18,C97A C104A,-5.08
19,C101U C114G,-3.89
20,A100U C115U,-2.94
21,C89G G110U,-2.85
22,U96G C102U,-2.86
23,C88U G120U U132C,0.106
24,A95G A111C G113A A119C G120C,-3.77

row,Variant,polymerase ribozyme fitness (log ratio)
1,U87G G113U,-3.33
2,G93A G117C,-3.87
3,U92A C124U,-1.43
4,A95C G107A,-7.02
5,A100C G120U U125C,-0.56
6,C88U G117A,-1.32
7,C98U,-1.2
8,C98A,-5.14
9,C98G,-5.78
10,C94A C123U,0.185
11,A100C G110U U112A,-5.07
12,U96A G128U,-1.89
13,C94G U109C A121U,-6.64
14,A91C A118G,-2.33
15,G93A C115G,-2.4
16,A91C U96A,-2.09
17,C97U A103U G113C C115A U116A,-6.04
18,U96G G127A,-2.63
19,C98U U106G U133G,-2.9
20,C89G A111G G113C,-3.54
21,C97A A105G,-5.98
22,C97U G117C,-4.37
23,C101G G120A G122C,-2.36
24,C94U G110U,-2.05

row,Variant,polymerase ribozyme fitness (log ratio)
1,C89A U129G,-2.64
2,C89A U116G C123G,-3.17
3,C89A C94A C115U U130A,-3.36
4,C88U C98A U106G,-5.05
5,C89A C123U C124G,1.14
6,C97U C101U U116G A118G,-4.15
7,A90G U112A,1.08
8,U87G C102A C124G,0.127
9,C98U C114A,-3.47
10,U87A G120U,0.227
11,C89U C115A,0.206
12,C98U C102A A111G A121G G122A,-5.08
13,C94U G128U,-1.7
14,G93A C114A A118C,-3.7
15,G93U G117U,-3.63
16,U92G U109A C124A U131A,-6.86
17,A91G U106G A111G,-3.06
18,A100U G120A G127C U131A,-2.13
19,U87A C89U,0.835
20,A91U U109A,-8.07
21,C94U G113U,-2.09
22,A95C U109A U112C,-4.49
23,C89A A111G,-1.35
24,C89A A111C,-2.88

row,Variant,polymerase ribozyme fitness (log ratio)
1,C98U G135C,-0.757
2,C86U G110C,-3.72
3,U96A G117C,-5.1
4,G93C U129A,-1.91
5,C94A G117U U129A,-4.44
6,C101A A111G,0.362
7,C88U C124A,1.47
8,A100U G110U,-2.67
9,C88A C97U U109A G110C,-6.36
10,C89U A100U,-1.41
11,G93U U133A,-0.793
12,A90G U125G,-0.567
13,U87G A111U,-2.77
14,C101U U125A,-0.975
15,U92A A108U U112C G113A A121G,-6.52
16,C94U U96A,-1.02
17,G93A A95G,-1.81
18,C98A C114U C123G U131C,-5.24
19,U92G C123A,-2.78
20,C97U G110C,-3.29
21,A91G A100C A111U A121G,-3.81
22,C98A C114U,-6.3
23,C94U A108U C114U U131G,-7.59
